Results as given in article PMC5541836.

Molecular target: Wild-type spindle pole bodies (SPBs) purified from budding yeast (strain BGY72-8A: Spc97-TAP, Spc42-mCherry) (budding yeast) (UniProt P38863)
Test: laser trap rupture force

Sequence of Microtubules assembled from bovine brain tubulin (Q6B856 whole entry, looked up): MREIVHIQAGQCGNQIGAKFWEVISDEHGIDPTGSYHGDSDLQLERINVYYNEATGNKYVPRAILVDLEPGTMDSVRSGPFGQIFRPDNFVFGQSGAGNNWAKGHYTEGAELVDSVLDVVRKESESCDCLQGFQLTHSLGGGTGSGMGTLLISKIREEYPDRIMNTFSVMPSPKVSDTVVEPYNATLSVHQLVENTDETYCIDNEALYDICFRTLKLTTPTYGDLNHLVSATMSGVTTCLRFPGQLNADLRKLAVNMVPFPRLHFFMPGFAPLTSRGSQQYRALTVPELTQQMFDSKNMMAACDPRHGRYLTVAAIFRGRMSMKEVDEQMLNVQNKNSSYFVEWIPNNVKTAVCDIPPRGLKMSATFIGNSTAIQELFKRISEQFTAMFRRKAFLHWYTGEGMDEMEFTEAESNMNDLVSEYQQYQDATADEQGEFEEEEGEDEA
Sequence of Wild-type spindle pole bodies (SPBs) purified from budding yeast (strain BGY72-8A: Spc97-TAP, Spc42-mCherry) (budding yeast) (P38863 whole entry, looked up): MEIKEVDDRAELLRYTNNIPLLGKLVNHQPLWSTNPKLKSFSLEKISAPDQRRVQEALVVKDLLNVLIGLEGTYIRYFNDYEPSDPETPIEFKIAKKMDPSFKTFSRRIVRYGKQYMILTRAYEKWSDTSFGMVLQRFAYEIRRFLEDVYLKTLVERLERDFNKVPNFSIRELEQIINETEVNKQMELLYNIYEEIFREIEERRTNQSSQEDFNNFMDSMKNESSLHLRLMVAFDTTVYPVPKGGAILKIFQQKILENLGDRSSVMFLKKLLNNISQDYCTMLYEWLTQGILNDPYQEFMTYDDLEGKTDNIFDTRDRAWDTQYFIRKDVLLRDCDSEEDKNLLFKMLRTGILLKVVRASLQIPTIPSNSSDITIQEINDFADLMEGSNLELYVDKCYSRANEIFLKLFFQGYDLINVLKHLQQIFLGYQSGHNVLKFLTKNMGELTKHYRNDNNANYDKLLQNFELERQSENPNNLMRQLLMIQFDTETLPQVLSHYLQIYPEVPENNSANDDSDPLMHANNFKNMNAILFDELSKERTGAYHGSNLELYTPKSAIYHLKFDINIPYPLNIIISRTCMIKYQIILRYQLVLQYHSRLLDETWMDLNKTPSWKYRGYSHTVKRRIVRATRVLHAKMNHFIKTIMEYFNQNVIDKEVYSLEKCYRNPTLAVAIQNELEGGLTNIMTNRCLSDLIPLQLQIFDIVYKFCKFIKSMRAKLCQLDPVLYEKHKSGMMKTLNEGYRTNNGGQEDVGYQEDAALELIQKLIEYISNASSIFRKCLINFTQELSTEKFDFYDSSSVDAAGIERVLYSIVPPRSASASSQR

Substance: Microtubules assembled from bovine brain tubulin (from UniProt Q6B856 1-445) (complex)
- raw mean rupture force: 45 pN
